{"source": "patent US20180186853A1", "about": "(HANMI PHARM, published 2018)", "binders": {"B1": {"name": "glucagon derivative of SEQ ID NO: 24 (peptide)", "peptide": "Y[Aib]QGTFTSDYSKCLDEKRAKEFVQWLMNT", "modifications": "bridge 16-20; also: ring between positions 16 and 20, kind not given here"}, "B2": {"name": "glucagon derivative of SEQ ID NO: 2 (peptide)", "peptide": "HSQGTFTSDYSKYLDCDRAQDFVQWLMNT"}, "B3": {"name": "glucagon derivative of SEQ ID NO: 43 (peptide)", "peptide": "Y[Aib]QGTFTSDCSKYLDSRRAQDFVQWLMNT"}, "B4": {"name": "glucagon derivative of SEQ ID NO: 31 (peptide)", "peptide": "Y[Aib]QGTFTSDYSKYLDCKRAKEFVQWLMNT", "modifications": "bridge 17-21; also: ring between positions 17 and 21, kind not given here"}, "B5": {"name": "glucagon derivative of SEQ ID NO: 17 (peptide)", "peptide": "Y[Aib]QGTFTSDYSKYLDCVRAQDFVQWLMRT"}, "B6": {"name": "glucagon derivative of SEQ ID NO: 28 (peptide)", "peptide": "W[Aib]QGTFVSDYSKYLDECRAKDFVQWLMNT", "modifications": "bridge 16-20; also: ring between positions 16 and 20, kind not given here"}, "B7": {"name": "glucagon derivative of SEQ ID NO: 36 (peptide)", "peptide": "Y[Aib]QGTFTSDCSKYLDERRAKEFVQWLMNT", "modifications": "bridge 16-20; also: ring between positions 16 and 20, kind not given here"}, "B8": {"name": "glucagon derivative of SEQ ID NO: 18 (peptide)", "peptide": "Y[Aib]QGTFTSDYSKYLDSRRACDFRLWLMNT"}, "B9": {"name": "glucagon derivative of SEQ ID NO: 25 (peptide)", "peptide": "Y[Aib]QGTFTSDYSKYLDEKRAKCFVQWLMNT", "modifications": "bridge 16-20; also: ring between positions 16 and 20, kind not given here"}, "B10": {"name": "glucagon derivative of SEQ ID NO: 12 (peptide)", "peptide": "Y[Aib]QGTFTSDYSKYLDEKRAKEFVQWLMNTC", "modifications": "bridge 16-20; also: ring between positions 16 and 20, kind not given here"}, "B11": {"name": "glucagon derivative of SEQ ID NO: 10 (peptide)", "peptide": "Y[Aib]QGTFTSDYSKYLDSCDADDFVVWLINT"}, "B12": {"name": "glucagon derivative of SEQ ID NO: 34 (peptide)", "peptide": "W[Aib]QGTFTSDYSKYCDERRAKEFVQWLMNT", "modifications": "bridge 16-20; also: ring between positions 16 and 20, kind not given here"}, "B13": {"name": "glucagon derivative of SEQ ID NO: 30 (peptide)", "peptide": "W[Aib]QGTFTSDYSKCLDERRAKDFVQWLMNT", "modifications": "bridge 16-20; also: ring between positions 16 and 20, kind not given here"}, "B14": {"name": "glucagon derivative of SEQ ID NO: 13 (peptide)", "peptide": "Y[Aib]QGTFTSDYSCYLDSRRAQDFVQWLMNT"}, "B15": {"name": "glucagon derivative of SEQ ID NO: 42 (peptide)", "peptide": "Y[Aib]QGTFCSDYSKYLDSRRAQDFVQWLMNT"}, "B16": {"name": "glucagon derivative of SEQ ID NO: 19 (peptide)", "peptide": "Y[Aib]QGTFTSDYSKYLCEKRAKEFVQWLMNT", "modifications": "bridge 16-20; also: ring between positions 16 and 20, kind not given here"}, "B17": {"name": "glucagon derivative of SEQ ID NO: 26 (peptide)", "peptide": "W[Aib]QGTFTSDYSKYLDECRAKDFVQWLMNT", "modifications": "bridge 16-20; also: ring between positions 16 and 20, kind not given here"}, "B18": {"name": "glucagon derivative of SEQ ID NO: 41 (peptide)", "peptide": "Y[Aib]QGTFCSDYSKYLDERRAKDFVQWLMNT", "modifications": "bridge 16-20; also: ring between positions 16 and 20, kind not given here"}, "B19": {"name": "glucagon derivative of SEQ ID NO: 22 (peptide)", "peptide": "Y[Aib]QGTFTSDYSKYLDEKRCKEFVQWLMNT", "modifications": "bridge 16-20; also: ring between positions 16 and 20, kind not given here"}, "B20": {"name": "glucagon derivative of SEQ ID NO: 40 (peptide)", "peptide": "Y[Aib]QGTFVSDYSKYLDERRAKDFVQWLMNTC", "modifications": "bridge 16-20; also: ring between positions 16 and 20, kind not given here"}, "B21": {"name": "glucagon derivative of SEQ ID NO: 37 (peptide)", "peptide": "Y[Aib]QGTFTSDYSKYLDERRAKEFVQWLMNTC", "modifications": "bridge 16-20; also: ring between positions 16 and 20, kind not given here"}, "B22": {"name": "glucagon derivative of SEQ ID NO: 14 (peptide)", "peptide": "Y[Aib]QGTFTSDYSKYLDCKRAKEFVQWLMNT", "modifications": "not fully specified (bridges)"}, "B23": {"name": "glucagon derivative of SEQ ID NO: 32 (peptide)", "peptide": "SQGTFTSDYSKYLDECRAKEFVQWLMNT", "modifications": "lactam 15-19"}, "B24": {"name": "glucagon derivative of SEQ ID NO: 27 (peptide)", "peptide": "Y[Aib]QGTFVSDYSKYLDECRAKDFVQWLMNT", "modifications": "bridge 16-20; also: ring between positions 16 and 20, kind not given here"}, "B25": {"name": "glucagon derivative of SEQ ID NO: 21 (peptide)", "peptide": "Y[Aib]QGTFTSDYSKYLDEKCAKEFVQWLMNT", "modifications": "bridge 16-20; also: ring between positions 16 and 20, kind not given here"}, "B26": {"name": "glucagon derivative of SEQ ID NO: 35 (peptide)", "peptide": "Y[Aib]QGTFTSDYSKYCDERRAKEFVQWLMNT", "modifications": "bridge 16-20; also: ring between positions 16 and 20, kind not given here"}, "B27": {"name": "glucagon derivative of SEQ ID NO: 20 (peptide)", "peptide": "Y[Aib]QGTFTSDYSKYLDECRAKEFVQWLMNT", "modifications": "bridge 16-20; also: ring between positions 16 and 20, kind not given here"}, "B28": {"name": "glucagon derivative of SEQ ID NO: 16 (peptide)", "peptide": "Y[Aib]QGTFTSDYSKYLDCRRAQVFVQWLMRT"}, "B29": {"name": "glucagon derivative of SEQ ID NO: 39 (peptide)", "peptide": "Y[Aib]QGTFVSDCSKYLDERRAKDFVQWLMNT", "modifications": "bridge 16-20; also: ring between positions 16 and 20, kind not given here"}, "B30": {"name": "glucagon derivative of SEQ ID NO: 15 (peptide)", "peptide": "Y[Aib]QGTFTSDYSKYLCEKRAQDFVVWLMNT"}, "B31": {"name": "glucagon derivative of SEQ ID NO: 29 (peptide)", "peptide": "Y[Aib]QGTFTSDYSKCLDERRAKDFVQWLMNT", "modifications": "bridge 16-20; also: ring between positions 16 and 20, kind not given here"}, "B32": {"name": "glucagon derivative of SEQ ID NO: 23 (peptide)", "peptide": "Y[Aib]QGTFTSDYSKYCDEKRAKEFVQWLMNT", "modifications": "bridge 16-20; also: ring between positions 16 and 20, kind not given here"}, "B33": {"name": "glucagon derivative of SEQ ID NO: 33 (peptide)", "peptide": "YXQGTFTSDYSKYLDSRRAQDFVQWLMNT", "modifications": "X at position 2 = aminoisobutyric acid (Aib)"}, "B34": {"name": "glucagon derivative of SEQ ID NO: 11 (peptide)", "peptide": "Y[Aib]QGTFTSDYSKYLDEKCAKEFVQWLMNT", "modifications": "not fully specified (bridges)"}, "B35": {"name": "glucagon derivative of SEQ ID NO: 44 (peptide)", "peptide": "YXQGTFTSDYSKYLDSRRAQDFVQWLMNTC", "modifications": "X at position 2 = aminoisobutyric acid (Aib)"}, "B36": {"name": "glucagon derivative of SEQ ID NO: 3 (peptide)", "peptide": "HSQGTFTSDYSKYLDCERAQDFVQWLMNT"}, "B37": {"name": "glucagon derivative of SEQ ID NO: 9 (peptide)", "peptide": "Y[Aib]QGTFTSDYSKYLDSCDAQDFVVWLINT"}, "B38": {"name": "glucagon derivative of SEQ ID NO: 38 (peptide)", "peptide": "Y[Aib]QGTFCSDYSKYLDERRAKEFVQWLMNT", "modifications": "bridge 16-20; also: ring between positions 16 and 20, kind not given here"}}, "note": "Positions of bridges follow the written chain, without caps; N, C: chain ends. Non-standard residues stand in square brackets, D forms with d. No end group written: not given here. Aib = CC(C)(N)C(=O)O"}
{"biological_target": "human glucagon receptor (human, UniProt P47871 26-477)", "sequence (P47871 26-477)": "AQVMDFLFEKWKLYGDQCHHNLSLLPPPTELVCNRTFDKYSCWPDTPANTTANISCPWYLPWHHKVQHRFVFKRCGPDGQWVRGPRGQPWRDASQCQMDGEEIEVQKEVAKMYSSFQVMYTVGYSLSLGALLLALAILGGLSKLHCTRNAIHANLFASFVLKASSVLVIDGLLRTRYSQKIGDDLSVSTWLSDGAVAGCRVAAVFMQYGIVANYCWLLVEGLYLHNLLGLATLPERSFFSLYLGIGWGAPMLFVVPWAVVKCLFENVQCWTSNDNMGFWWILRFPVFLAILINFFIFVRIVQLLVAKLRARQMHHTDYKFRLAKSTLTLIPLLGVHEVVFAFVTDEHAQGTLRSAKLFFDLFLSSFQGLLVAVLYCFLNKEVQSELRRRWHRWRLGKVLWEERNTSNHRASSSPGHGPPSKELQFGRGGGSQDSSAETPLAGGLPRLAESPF", "assay": "cell-based or functional assay", "units": {"In vitro Activity (Relative Activity of SEQ ID NO: 1, %), from cAMP EC50": "%"}}
{"binder": "B1", "In vitro Activity (Relative Activity of SEQ ID NO: 1, %), from cAMP EC50": 58}
{"binder": "B2", "In vitro Activity (Relative Activity of SEQ ID NO: 1, %), from cAMP EC50": 0.6}
{"binder": "B3", "In vitro Activity (Relative Activity of SEQ ID NO: 1, %), from cAMP EC50": 1.6}
{"binder": "B4", "In vitro Activity (Relative Activity of SEQ ID NO: 1, %), from cAMP EC50": 6.3}
{"binder": "B5", "In vitro Activity (Relative Activity of SEQ ID NO: 1, %), from cAMP EC50": 23.2}
{"binder": "B6", "In vitro Activity (Relative Activity of SEQ ID NO: 1, %), from cAMP EC50": "< 0.1"}
{"binder": "B7", "In vitro Activity (Relative Activity of SEQ ID NO: 1, %), from cAMP EC50": 9.9}
{"binder": "B8", "In vitro Activity (Relative Activity of SEQ ID NO: 1, %), from cAMP EC50": "< 0.1"}
{"binder": "B9", "In vitro Activity (Relative Activity of SEQ ID NO: 1, %), from cAMP EC50": 46.9}
{"binder": "B10", "In vitro Activity (Relative Activity of SEQ ID NO: 1, %), from cAMP EC50": 56.3}
{"binder": "B11", "In vitro Activity (Relative Activity of SEQ ID NO: 1, %), from cAMP EC50": "< 0.1"}
{"binder": "B12", "In vitro Activity (Relative Activity of SEQ ID NO: 1, %), from cAMP EC50": 0.2}
{"binder": "B13", "In vitro Activity (Relative Activity of SEQ ID NO: 1, %), from cAMP EC50": 0.3}
{"binder": "B14", "In vitro Activity (Relative Activity of SEQ ID NO: 1, %), from cAMP EC50": 5.2}
{"binder": "B15", "In vitro Activity (Relative Activity of SEQ ID NO: 1, %), from cAMP EC50": 37.9}
{"binder": "B16", "In vitro Activity (Relative Activity of SEQ ID NO: 1, %), from cAMP EC50": 12.1}
{"binder": "B17", "In vitro Activity (Relative Activity of SEQ ID NO: 1, %), from cAMP EC50": 1}
{"binder": "B18", "In vitro Activity (Relative Activity of SEQ ID NO: 1, %), from cAMP EC50": 45.2}
{"binder": "B19", "In vitro Activity (Relative Activity of SEQ ID NO: 1, %), from cAMP EC50": 148}
{"binder": "B20", "In vitro Activity (Relative Activity of SEQ ID NO: 1, %), from cAMP EC50": 40.8}
{"binder": "B21", "In vitro Activity (Relative Activity of SEQ ID NO: 1, %), from cAMP EC50": 226}
{"binder": "B22", "In vitro Activity (Relative Activity of SEQ ID NO: 1, %), from cAMP EC50": 18.1}
{"binder": "B23", "In vitro Activity (Relative Activity of SEQ ID NO: 1, %), from cAMP EC50": 0.7}
{"binder": "B24", "In vitro Activity (Relative Activity of SEQ ID NO: 1, %), from cAMP EC50": 93.6}
{"binder": "B25", "In vitro Activity (Relative Activity of SEQ ID NO: 1, %), from cAMP EC50": 57.8}
{"binder": "B26", "In vitro Activity (Relative Activity of SEQ ID NO: 1, %), from cAMP EC50": 17.7}
{"binder": "B27", "In vitro Activity (Relative Activity of SEQ ID NO: 1, %), from cAMP EC50": 300}
{"binder": "B28", "In vitro Activity (Relative Activity of SEQ ID NO: 1, %), from cAMP EC50": 4.2}
{"binder": "B29", "In vitro Activity (Relative Activity of SEQ ID NO: 1, %), from cAMP EC50": 3.7}
{"binder": "B30", "In vitro Activity (Relative Activity of SEQ ID NO: 1, %), from cAMP EC50": 1.1}
{"binder": "B31", "In vitro Activity (Relative Activity of SEQ ID NO: 1, %), from cAMP EC50": 61.3}
{"binder": "B32", "In vitro Activity (Relative Activity of SEQ ID NO: 1, %), from cAMP EC50": 76.8}
{"binder": "B33", "In vitro Activity (Relative Activity of SEQ ID NO: 1, %), from cAMP EC50": 108}
{"binder": "B34", "In vitro Activity (Relative Activity of SEQ ID NO: 1, %), from cAMP EC50": 4.6}
{"binder": "B35", "In vitro Activity (Relative Activity of SEQ ID NO: 1, %), from cAMP EC50": 75.4}
{"binder": "B36", "In vitro Activity (Relative Activity of SEQ ID NO: 1, %), from cAMP EC50": 6.1}
{"binder": "B37", "In vitro Activity (Relative Activity of SEQ ID NO: 1, %), from cAMP EC50": "< 0.1"}
{"binder": "B38", "In vitro Activity (Relative Activity of SEQ ID NO: 1, %), from cAMP EC50": 167}
